From patent US20100167321A1 (AICHI PREFECTURE, published 2010)

T1: HLA-A2402 molecule on T2-A24 cells (human, UniProt P04439-2 25-302 at identity 0.92))
T1 construct: whole, on cells; Cell-surface HLA-A2402 of T2-A24 transfectants; also called HLA-A24 molecules
T1 MHC heavy: not shown


Target: T1, HLA-A2402 molecule on T2-A24 cells
Experiment: MHC stabilization assay, T2-A24 cells with 10 µM peptide, anti-HLA-A2402 mAb staining, flow cytometry

Row | Binder | % MFI increase [%]
1 | LFHSKKMDL (Synthetic peptide) [Ep225 (Ep-CAM 225-233 peptide LFHSKKMDL)] | 29
2 | EMGEMHREL (Synthetic peptide) [Ep304 (Ep-CAM 304-312 peptide EMGEMHREL)] | 16
3 | YYVDEKAPEF (Synthetic peptide) [Ep250 (Ep-CAM 250-259 peptide YYVDEKAPEF)] | 57

The remaining lines, values ahead:

Row | % MFI increase [%] | Binder
4 | 24 | KYEKAEIKEM (Synthetic peptide) [Ep296 (Ep-CAM 296-305 peptide KYEKAEIKEM)]
5 | 79 | LYENNVITI (Synthetic peptide) [Ep185 (Ep-CAM 185-193 peptide LYENNVITI)]
6 | 85 | NYKLAVNCF (Synthetic peptide) [Ep31 (Ep-CAM 31-39 peptide NYKLAVNCF)]
